Where a name gives a salt, the structure may show the parent alone.
Columns and labels:
[1] = Washout of 125I-HBGF-1 from FG-treated PTFE grafts in rabbit aortas; format: in vivo, New Zealand white rabbits
Protocol: In general, the modified F was sterilely prepared by adding approximately 1 ng/cm^2 area of the inner and outer graft surfaces of human recombinant […], 20 μg/cm^2 porcine intestinal mucosal heparin, and 2.86 mg/cm^2 fibrinogen to 2.86×10^−2 U/cm^2 reconstituted, commercially available, human thrombin (1000 U/ml) to induce polymerization.
The […] was specifically prepared as follows. Fibrinogen was reconstituted by adding 500 mg of fibrinogen into 25 ml of PBS to produce a fibrinogen concentration of 20 mg/ml of PBS. Three ml of this solution which contained 60 mg fibrinogen were placed into […] Eppendorf plastic tubes and maintained at −70° C. Each of these aliquots was used individually.
The thrombin was reconstituted by diluting a commercially available preparation thereof (Armour Pharmaceutical Co., Kankakee, Ill.) at a concentration of 1000 U/ml by a factor of 1:10 in sterile solution to produce a concentration of 100 U/ml. This thrombin solution was again diluted 1:10 to produce a solution of 10 U/ml.
The bovine heparin (Upjohn, Kalamazoo, Mich.) was reconstituted by diluting the preparation at a concentration of 1000 U/ml by a factor of 1:1000 using normal saline.
One and 48/100 (1.48) ml of the reconstituted fibrinogen, 63 μL of the reconstituted heparin, plus 15.66 μL of ^125I-HBGF-1 were mixed in a glass scintillation tube. This mixture was then aspirated into a 3 ml plastic syringe. Five ml of the reconstituted thrombin was placed into a glass scintillation tube.
One end of the expanded PTFE graft was placed over a plastic-3 way stopcock nozzle and was secured there with a 2-0 silk tie. The PTFE was then encircled with a 3×3 cm square of Parafilm™ which was then crimped there with a straight hemostat to establish a watertight seal. A second 2-0 silk tie was positioned over the parafilm adjacent to the stopcock to form another seal. A straight hemostat was then used to clamp the distal 2 mm of the PTFE/parafilm to seal this end.
Equal volumes of fibrinogen and thrombin solution prepared as described above were mixed and allowed to react for approximately 30 seconds which is when polymerization occurs. The thrombin-polymerized fibrin is then opaque. (This time factor is approximate and varies from one thrombin lot to another. The appropriate length of time to polymerization can be determined by viewing the opacity of the mixture). The fibrin/thrombin mixture was aspirated into a one cc syringe. (NOTE: The volume of this graft was 0.42 ml. For a graft with a larger volume one needs to use a larger syringe). […] The treated graft was then ready for implantation. […]

NIH 3T3 fibroblasts = test: Cell chemotaxis assay (modified Boyden's chamber), NIH 3T3 fibroblasts; format: cell-based; details: for concentration of maximum stimulation of migration: FGF-1 in the presence of 10 U/ml heparin
Description: (§1) NIH/3T3 fibroblasts at passage 126 were purchased from the American Type Culture Collection, Rockville, Md. Cultures from passages 129-133 were used in the chemotaxis assays. Cultures were propagated in DMEM supplemented with 10%. Calf serum and approximately 1% antibiotic antimycotic solution. Human dermal fibroblasts (HDFs) were purchased from Clonetics, Inc. (San Diego, Calif.) at passage 2. Cultures from passages 3-5 were used in the chemotaxis assays. Cultures were cultivated in DMEM supplemented with 20% FBS (Hyclone Laboratories, Inc., Logan, Utah) and approximately 1% antibiotic antimycotic solution (Gibco, Grand Island, N.Y.).
The procedure used to determine cellular chemotaxis was a combination of two known methodologies. A modification of Boyden's chamber was used as follows: Millicell-PCF (Millipore, Inc., Bedford, Mass.) (12.0 μm) 12.0 mm diameter inserts were placed in individual wells of 24 well plates to create the upper and lower chemotaxis chambers. Chemotaxis results were arrived at by performing checkerboard analysis for every combination of cells and growth factors. […] Briefly, cultures were trypsanized and placed in DMEM+0.1% Bovine Serum Albumin (BSA) (Sigma Chemical Co., St. Louis, Mo.) for approximately one hour at 37° C. in a 5% CO2 humidified chamber. Tow to 2.5×10^5 cells in 50 μl were added per insert to the upper chamber of the setup of the 24 well plates. Treatments were added as mentioned above. The assay was kept at 37° C. in a 5% CO2 humidified chamber for 4 hours. All combinations tested were performed in triplicate. At the end of 4 hours, the plates were removed from the incubator and the filters were stained following the protocol for staining included with the Millicell-PCT inserts. Briefly, the fluid surrounding the inside and outside of the Millicell-PCF inserts were removed. Three percent glutaraldehyde (Sigma Chemical Co., St. Louis, Mo.) was added to the outside and inside of the inserts for approximately 20 minutes. Following removal of the 3.0% glutaraldehyde, 0.5% Triton X-100 (E.M. Science, Cherry Hill, N.J.) was added for 5-7 minutes. On removal of the 0.5% Triton X-100, Fisher's Hematoxylin Solution Gill's Formulation (Fisher Scientific, Newark, Del.) No.1 was added for about 10 minutes. This solution was washed off in running distilled water for about 5 minutes. Using a cotton swab the upper side of the filter was swabbed to remove cells which had not migrated. Filters, were mounted lower side facing up on slides in Crystal Mount™ (Biomedia, Inc., Foster City, Calif.) solution and 10 random field were counted per slide both visually at 400× and at 200×using an Image Analyzing System to automate the enumeration of the cells on the underside of the filters.
(§2) As required, checkerboard analysis was carried out to determine random migration, and positive and negative chemotaxis. Growth factors were added to the upper and/or lower chambers to observe whether cells migrated towards the GF alone (chemotaxis), whether migration was random irrespective of whether the growth factor was added to the upper or lower well (chemokinesis) or whether cell migration was against the chemotactic gradient (negative chemotaxis).

[2] = tested on: human dermal fibroblasts (HDFs); test: Cell migration assay to FGF released from FG; format: cell-based; details: 24 hours
Protocol: FIG. 41. Graph showing the dose-response relationship of the chemotactic response of HDFs to FGF-4 in solution and in FG. FGF-4 was incorporated into FG and placed in the bottom well of chemotaxis chambers. The amount of FGF in the FG was sufficient to result in the indicated concentrations when evenly distributed throughout the FG and medium in the lower chamber. Negative controls included medium alone and FG without FGF. Medium containing FGF-4 at a concentration of […] in the lower chamber was utilized as a positive control.
Chemotaxis chambers and cells were utilized as described above. Fifty μl of 8 mg/ml Topical Fibrinogen Complex (TFC, American Red Cross, Rockville, Md.) was added to the bottom of 24 well plates. Forty μl of test growth factor+/−heparin at a final concentration of 10 U/ml (FGF-1, FGF-4 with heparin, FGF-2 alone) was added to the TFC and thoroughly mixed. Ten μl of bovine Thrombin (Armour Pharmaceutical Company, Kankakee, Ill.) was added and mixed thoroughly. The components were allowed to gel at room temperature for approximately 30 minutes. Total volume in the lower and upper chambers was made up to 0.5 ml each with DMEM+0.1% BSA. The concentration of the FGF's added to the TFC was adjusted to produce the desired overall concentration as determined by: [formula] The assay was performed at 37° C. in a5% CO2 humidified chamber for approximately 24 hours. […]

[3] = tested on: human dermal fibroblasts (HDFs); test: Cell chemotaxis assay (modified Boyden's chamber), human dermal fibroblasts; format: cell-based
Description: as §1
The procedure used to determine cellular chemotaxis was a combination of two known methodologies. A modification of Boyden's chamber was used as follows: Millicell-PCF (Millipore, Inc., Bedford, Mass.) (12.0 μm) 12.0 mm diameter inserts were placed in individual wells of 24 well plates to create the upper and lower chemotaxis chambers. Chemotaxis results were arrived at by performing checkerboard analysis for every combination of cells and growth factors. Concentrations ranging from 0.1, 1, 10, 100 ng/ml with/without added heparin (10 U/ml) were used for FGF-1, FGF-2 (no heparin) and FGF-4 with all the cell types mentioned in the materials section. Briefly, cultures were trypsanized and placed in DMEM+0.1% Bovine Serum Albumin (BSA) (Sigma Chemical Co., St. Louis, Mo.) for approximately one hour at 37° C. in a 5% CO2 humidified chamber. Tow to 2.5×10^5 cells in 50 μl were added per insert to the upper chamber of the setup of the 24 well plates. Treatments were added as mentioned above. The assay was kept at 37° C. in a 5% CO2 humidified chamber for 4 hours. All combinations tested were performed in triplicate. At the end of 4 hours, the plates were removed from the incubator and the filters were stained following the protocol for staining included with the Millicell-PCT inserts. Briefly, the fluid surrounding the inside and outside of the Millicell-PCF inserts were removed. Three percent glutaraldehyde (Sigma Chemical Co., St. Louis, Mo.) was added to the outside and inside of the inserts for approximately 20 minutes. Following removal of the 3.0% glutaraldehyde, 0.5% Triton X-100 (E.M. Science, Cherry Hill, N.J.) was added for 5-7 minutes. On removal of the 0.5% Triton X-100, Fisher's Hematoxylin Solution Gill's Formulation (Fisher Scientific, Newark, Del.) No.1 was added for about 10 minutes. This solution was washed off in running distilled water for about 5 minutes. Using a cotton swab the upper side of the filter was swabbed to remove cells which had not migrated. Filters, were mounted lower side facing up on slides in Crystal Mount™ (Biomedia, Inc., Foster City, Calif.) solution and 10 random field were counted per slide both visually at 400× and at 200×using an Image Analyzing System to automate the enumeration of the cells on the underside of the filters.
as §2

E. coli = test: Antimicrobial activity of AB released from AB-FG (zone of inhibition); format: cell-based; details: eluates on agar plates, 18 hours at 37° C.
Protocol: FIG. 27. […] Then the diameter of the zone of inhibition was measured.
In order to measure the concentration and biological activity of the TFT which had been released from the TFT-FG disks, the eluted TFT was thawed and was analyzed spectrophotometrically at 320 nm and/or biologically by the inhibition of E. coli grown on agar plates.
The antimicrobial activity of the AB released from the AB-FG was estimated by measuring the diameters of the zones of inhibition generated by the eluate from the 6 mm diameter disks form the daily collected PBS or saliva surrounding the AB-FG. The eluates from unsupplemented FG served as controls. AB solutions of knwon concentration were used as standards. […] To make the culture plates, 100 μl of the bacterial cell suspension, containing approximately 10^8 cells/ml, was mixed with 3 ml of top agar at 50° C. and immediately poured onto the plate hard, bottom agar to make a uniform layer of cells. The plates were incubated at 37° C. for 18 hours.

Molecule | checkerboard analysis (NIH 3T3 fibroblasts) | concentration of maximum stimulation of migration (NIH 3T3 fibroblasts) | checkerboard analysis [3] | concentration of maximum stimulation of migration [3] | maximal migratory response over negative control [3] | antimicrobial activity of released AB (E. coli) | other results
^125I-HBGF-1: radiolabelled human recombinant HBGF-1 in FG applied to PTFE grafts |  |  |  |  |  |  | remaining 125I-HBGF-1, percentage of the zero time value ([1]; after 1 week): 13.44%±6.9%; washout of 125I-HBGF-1 ([1]; after 1 hr): −0.03 %/min; remaining 125I-HBGF-1, percentage of the zero time value ([1]; after 30 days): 3.8%±1.1%; washout of 125I-HBGF-1 ([1]; between 5 and 60 minutes): −24.1 %/min
FGF-2: recombinant fibroblast growth factor-2 | chemotactic | 1 ng/mL | chemotactic | 10 mg/mL | 12 fold |  | concentration in FG eliciting peak chemotactic response [2]: 0.01 mg/mL
Cc1ncc([N+](=O)[O-])n1CCO [MET, Metronidazole] |  |  |  |  |  | parallels the profiles determined spectrophotometrically | 
O=C(O)c1cn(C2CC2)c2cc(N3CCNCC3)c(F)cc2c1=O [CIP, Ciprofloxacin HCl] |  |  |  |  |  | parallels the profiles determined spectrophotometrically | 
FGF-4: recombinant fibroblast growth factor-4 (protein, UniProt P08620 31-206, looked up) Fibroblast growth factor 4: APTAPNGTLEAELERRWESLVALSLARLPVAAQPKEAAVQSGAGDYLLGIKRLRRLYCNVGIGFHLQALPDGRIGGAHADTRDSLLELSPVERGVVSIFGVASRFFVAMSSKGKLYGSPFFTDECTFKEILLPNNYNAYESYKYPGMFIALSKNGKTKKGNRVSPTMKVTHFLPRL | chemotactic | 10 ng/mL | chemotactic | 10 mg/mL | 10 fold |  | incorporated and total concentration in FG eliciting maximal migratory response [2]: 1 ng/mL

Source: USRE39192E1, “Supplemented and unsupplemented tissue sealants, methods of their production and use” (American National Red Cross, priority 1990, dated 2006)
